Laboratory results as given in patent US20200024330A1.

What was measured:
Assay in all cases: cell-based or functional assay
[1] = biological target: HIV-1 Env of isolate MGRM-F1-014 (HIV-1)
[2] = biological target: HIV-1 CAAN.A2 Env (pseudovirus) (HIV-1)
[3] = biological target: HIV-1 Env of isolate MGRM-C-023 (pseudovirus) (HIV-1 isolate MGRM-C-023, subtype C)
[4] = biological target: HIV-1 Env of isolate MGRM-C-025 (pseudovirus) (HIV-1 isolate MGRM-C-025, subtype C)
[5] = biological target: HIV-1 MGRM-Chronic-B-024 Env (pseudovirus) (HIV-1)
[6] = biological target: HIV-1 MGRM-A-010 envelope glycoprotein (Env) on pseudovirus (HIV-1)
[7] = biological target: HIV-1 Env of isolate MGRM-C-027 (pseudovirus) (HIV-1 isolate MGRM-C-027, subtype C)
[8] = biological target: HIV-1 93IN905 envelope glycoprotein (Env) on pseudovirus (HIV-1)
[9] = biological target: HIV-1 94UG103 envelope glycoprotein (Env) on pseudovirus (HIV-1)
[10] = biological target: HIV-1 TRO.11 Env (pseudovirus) (HIV-1)
[11] = biological target: HIV-1 Env of isolate MGRM-F1-017 (HIV-1)
[12] = biological target: HIV-1 Env of isolate 92UG001 (subtype D) (HIV-1)
[13] = biological target: HIV-1 Env of isolate MGRM-F1-023 (HIV-1)
[14] = biological target: HIV-1 Env of isolate 98CN006 (subtype CRF08 BC) (HIV-1)
[15] = biological target: HIV-1 Env of isolate MG RM-D-020 (subtype D) (HIV-1)
[16] = biological target: HIV-1 93UG077 envelope glycoprotein (Env) on pseudovirus (HIV-1)
[17] = biological target: HIV-1 92BR020 Env (pseudovirus) (HIV-1)
[18] = biological target: HIV-1 Env of isolate MGRM-G-006 (subtype G) (HIV-1)
[19] = biological target: HIV-1 Env of isolate 98CN009 (HIV-1)
[20] = biological target: HIV-1 Env of isolate NL43 (HIV-1)
[21] = biological target: HIV-1 APV-17 envelope protein (Env) on pseudovirus (HIV-1)
[22] = biological target: HIV-1 Env of isolate MGRM-D-026 (clade D) (HIV-1)
[23] = biological target: HIV-1 Env of isolate MGRM-G-027 (clade G pseudovirus) (HIV-1)
[24] = biological target: HIV-1 92RW008 envelope glycoprotein (Env) (HIV-1)
[25] = biological target: HIV-1 Env of isolate MGRM-D-012 (clade D) (HIV-1)
[26] = biological target: HIV-1 93IN905 Env (HIV-1)
[27] = biological target: HIV-1 MGRM-A-011 envelope glycoprotein (Env) (HIV-1)
[28] = biological target: HIV-1 Env of isolate MGRM-G-014 (clade G pseudovirus) (HIV-1)
[29] = biological target: HIV-1 MGRM-F1-021 Env (pseudovirus) (HIV-1)
[30] = biological target: HIV-1 IAVI-C18 envelope protein (Env) on pseudovirus (HIV-1)
[31] = biological target: HIV-1 Env of isolate MGRM-G-025 (clade G pseudovirus) (HIV-1)
[32] = biological target: HIV-1 92RW020 envelope protein (Env) on pseudovirus (HIV-1)
[33] = biological target: HIV-1 94KE105 envelope glycoprotein (Env) (HIV-1)
[34] = biological target: HIV-1 MGRM-F1-016 Env (pseudovirus) (HIV-1)
[35] = biological target: HIV-1 MGRM-A-007 envelope glycoprotein (Env) (HIV-1)

Chain of PGT-141 (4964_G22; 4993_K13) (antibody) (VH): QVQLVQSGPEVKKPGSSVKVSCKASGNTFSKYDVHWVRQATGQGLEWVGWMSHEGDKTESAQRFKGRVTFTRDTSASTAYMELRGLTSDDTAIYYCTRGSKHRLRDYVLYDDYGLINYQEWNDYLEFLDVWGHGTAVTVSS
Chain of PGT-141 (4964_G22; 4993_K13) (antibody) (VL): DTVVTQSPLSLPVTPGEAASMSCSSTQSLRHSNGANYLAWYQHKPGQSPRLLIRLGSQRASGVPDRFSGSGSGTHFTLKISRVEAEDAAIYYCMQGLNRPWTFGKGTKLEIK
Chain of PGT-142 (4995_E20) (antibody) (VH): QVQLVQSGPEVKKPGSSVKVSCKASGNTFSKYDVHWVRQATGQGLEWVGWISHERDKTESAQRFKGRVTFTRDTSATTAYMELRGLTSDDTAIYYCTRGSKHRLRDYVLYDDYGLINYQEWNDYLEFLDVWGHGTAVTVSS
Chain of PGT-143 (4980_N08) (antibody) (VH): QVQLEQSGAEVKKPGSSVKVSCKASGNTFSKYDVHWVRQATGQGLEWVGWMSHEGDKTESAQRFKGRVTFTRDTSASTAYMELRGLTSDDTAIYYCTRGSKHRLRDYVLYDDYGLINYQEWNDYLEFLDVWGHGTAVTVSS
Chain of PGT-143 (4980_N08) (antibody) (VL): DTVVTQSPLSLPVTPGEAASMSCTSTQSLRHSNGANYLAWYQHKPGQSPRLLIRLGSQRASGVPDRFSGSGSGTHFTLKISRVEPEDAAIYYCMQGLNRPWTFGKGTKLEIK
Chain of PGT-144 (4970_K22) (antibody) (VH): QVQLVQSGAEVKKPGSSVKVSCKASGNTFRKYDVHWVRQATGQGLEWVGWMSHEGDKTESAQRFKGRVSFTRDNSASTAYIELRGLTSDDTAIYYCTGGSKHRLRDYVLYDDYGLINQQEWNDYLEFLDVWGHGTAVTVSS
Chain of PGT-144 (4970_K22) (antibody) (VL): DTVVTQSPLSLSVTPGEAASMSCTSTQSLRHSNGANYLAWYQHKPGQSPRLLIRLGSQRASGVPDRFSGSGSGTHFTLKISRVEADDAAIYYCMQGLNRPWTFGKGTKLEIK

4877_D15 (PGT-122) (antibody)
IC50 [1]: 0.195 µg/mL | IC50, pseudovirus neutralization [2]: 0.011 µg/mL | IC50 (µg/mL) neutralization [3]: 0.027 µg/mL | IC50 (µg/mL) neutralization [4]: 8.69 µg/mL | IC50, pseudovirus neutralization [5]: 2.31 µg/mL | IC50 (ug/ml), neutralizing activity [6]: 1.68 µg/mL | IC50 (µg/mL) neutralization [7]: 0.039 µg/mL | IC50 (ug/ml), neutralizing activity [8]: 0.0138 µg/mL | IC50 (ug/ml), neutralizing activity [9]: 1.46 µg/mL | IC50, pseudovirus neutralization [10]: 0.011 µg/mL | IC50 [11]: > 50 µg/mL | IC50 (µg/mL), pseudovirus neutralization [12]: > 50 µg/mL | IC50 [13]: 0.154 µg/mL | IC50 (µg/mL), pseudovirus neutralization [14]: 0.021 µg/mL | IC50 (µg/mL), pseudovirus neutralization [15]: 0.007 µg/mL | IC50 (ug/ml), neutralizing activity [16]: 0.191 µg/mL | IC50, pseudovirus neutralization [17]: 0.021 µg/mL

PGT-141 (4964_G22; 4993_K13) (antibody)
neutralization IC50 [18]: 0.043 µg/mL

PGT-142 (4995_E20) (antibody)
neutralization IC50 [18]: 0.019 µg/mL

PGT-143 (4980_N08) (antibody)
neutralization IC50 [18]: 0.031 µg/mL

PGT-144 (4970_K22) (antibody)
neutralization IC50 [18]: 3.84 µg/mL

PGV04 (antibody)
neutralization IC50 [18]: 0.083 µg/mL | IC50 (µg/mL), pseudovirus neutralization [1]: 0.02 µg/mL | IC50, pseudovirus neutralization [19]: 0.0125 µg/mL

VRC01 (antibody)
neutralization IC50 [18]: 0.055 µg/mL | IC50, pseudovirus neutralization [1]: 0.056 µg/mL | IC50, pseudovirus neutralization [11]: 1.08 µg/mL | neutralization IC50 [20]: 0.1 µg/mL | IC50, pseudovirus neutralization [13]: 0.392 µg/mL

b12 (antibody)
neutralization IC50 [21]: > 25 µg/mL | IC50 (µg/ml), pseudovirus neutralization [22]: 1.55 µg/mL | IC50 (µg/ml), pseudovirus neutralization [23]: > 50 µg/mL | IC50 (µg/ml), pseudovirus neutralization [24]: 9.46 µg/mL | IC50 (µg/ml), pseudovirus neutralization [25]: 0.13 µg/mL | IC50 [26]: 21.4 µg/mL | IC50 (µg/ml), pseudovirus neutralization [27]: 4.01 µg/mL | IC50 (µg/ml), pseudovirus neutralization [28]: > 50 µg/mL | IC50 (µg/ml), pseudovirus neutralization [29]: > 50 µg/mL | neutralization IC50 [30]: > 50 µg/mL | IC90 (pseudovirus neutralization) [8]: > 50 µg/mL | IC90 (pseudovirus neutralization) [9]: 47.3 µg/mL | IC50 (µg/ml), pseudovirus neutralization [31]: > 50 µg/mL | neutralization IC50 [32]: > 50 µg/mL | IC50 (µg/ml), pseudovirus neutralization [33]: > 50 µg/mL | IC90 (pseudovirus neutralization) [16]: > 50 µg/mL | IC50 (µg/ml), pseudovirus neutralization [34]: > 50 µg/mL | IC50 (µg/ml), pseudovirus neutralization [35]: > 50 µg/mL
